Target: T1, human-derived IL-6Rα protein (human, UniProt P08887 20-365, limits assumed)
T1 construct: Described only as 'soluble human IL-6Rα protein'; also called h-IL-6Rα; soluble human IL-6Rα protein
T1 sequence (looked up): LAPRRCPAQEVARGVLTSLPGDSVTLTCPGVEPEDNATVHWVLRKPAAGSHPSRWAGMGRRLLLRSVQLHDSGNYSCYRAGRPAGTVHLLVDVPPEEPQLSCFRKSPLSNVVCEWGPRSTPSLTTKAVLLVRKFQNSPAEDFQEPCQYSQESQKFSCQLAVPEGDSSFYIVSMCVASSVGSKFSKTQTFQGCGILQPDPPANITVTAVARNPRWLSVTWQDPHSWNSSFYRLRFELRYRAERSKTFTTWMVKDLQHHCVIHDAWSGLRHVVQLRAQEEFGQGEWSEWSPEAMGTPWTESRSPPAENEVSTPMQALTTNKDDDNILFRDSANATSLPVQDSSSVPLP
Assay: SPR, h-IL-6Rα immobilized on a CM5 chip, 2S3-3D as analyte at 250, 125, 62.5, 31.2 and 15.6 nM
Protocol: The binding kinetics experiments for detecting antigen-antibody were carried out by Biocare Molecular Biological Interaction Platform. […] The binding time was set at 180 s/dissociation time at 200 s. The binding and dissociation of antigen and antibody were observed, and the data were analyzed by the corresponding analysis software.

Kd: 6.33 nM
B1: nanobody 2S3-3D (VHH)
VHH: QLQLVESGGGLVRPGGSLRLSCTIHGVTLDWYAVGWFRQAPGKEREGVSCISSSDGSTYYADSVKGRFTISRDNVKNTMYLQMNSLKPEDTAVYYCAMVFTTAQAMGVPFHDFEYDYWGPGTQVTVSS
notes: Alpaca-derived VHH expressed from pTT5 in 293F cells; also called anti-h-IL-6Rα nanobody; the nanobody
